These results are taken from patent publication US20100196385A1 (AstraZeneca / MedImmune, published 2010).

Assay [1] concerns the target T1, human Dll1 (human, UniProt O00548 18-723).
T1 construct: whole, on cells
T1 sequence (looked up): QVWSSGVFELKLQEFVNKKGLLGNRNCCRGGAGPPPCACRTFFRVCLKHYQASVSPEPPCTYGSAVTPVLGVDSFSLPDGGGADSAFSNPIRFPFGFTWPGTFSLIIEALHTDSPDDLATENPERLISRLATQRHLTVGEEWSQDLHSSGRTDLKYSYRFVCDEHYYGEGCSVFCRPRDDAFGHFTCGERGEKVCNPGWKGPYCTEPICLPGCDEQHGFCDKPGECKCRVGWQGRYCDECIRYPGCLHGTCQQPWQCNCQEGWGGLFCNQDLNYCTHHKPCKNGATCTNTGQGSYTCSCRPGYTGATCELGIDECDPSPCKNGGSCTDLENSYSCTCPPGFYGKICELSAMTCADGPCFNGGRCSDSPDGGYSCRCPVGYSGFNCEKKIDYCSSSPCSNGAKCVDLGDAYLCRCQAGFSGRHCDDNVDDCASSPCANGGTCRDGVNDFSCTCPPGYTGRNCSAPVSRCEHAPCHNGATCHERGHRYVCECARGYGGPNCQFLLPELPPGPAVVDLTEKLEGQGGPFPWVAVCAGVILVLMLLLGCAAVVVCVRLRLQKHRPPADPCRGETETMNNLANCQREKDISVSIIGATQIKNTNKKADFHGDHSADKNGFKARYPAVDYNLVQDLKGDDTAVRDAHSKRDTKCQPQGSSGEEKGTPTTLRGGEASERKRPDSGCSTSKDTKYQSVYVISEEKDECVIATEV
The assay is described as follows: FACS, 15 µg/ml, 293T cells with human Dll1. The essentials: (§1)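 First, cells were resuspended in PBS with 2% FCS at 50000 cells/well. Next, diluted purified anti-DLL4 antibodies were applied for 1 h at 4 °C. Finally, geometric mean fluorescence of target-transfected cells was compared with that of mock-transfected cells.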

For assay [2], the target named is T2, human Jagged1 (human, UniProt P78504 34-1218).
T2 construct: whole, on cells
In words: FACS, 5 µg/ml, 293T cells with human Jagged1. A digest of the protocol: as §1

In assay [3] the target is T1, human Dll1. The assay is described as follows: FACS, 15 µg/ml, 293T cells with human Dll1 vs mock. The essentials:
as §1

For assay [4], the target named is T2, human Jagged1. The assay is described as follows: FACS, 5 µg/ml, 293T cells with human Jagged1 vs mock. The essentials:
as §1

For assay [5], the target named is T2, human Jagged1. The assay is described as follows: FMAT, hybridoma supernatant, 293T cells with human Jagged1. The essentials:
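Binding was read by FMAT fluorescence after 3 h at room temperature on live 293T cells expressing the ligand, seeded at 3000 per well with 15000 mock-transfected cells in PBS/2% FBS. Hybridoma supernatants were added together with Cy5 anti-human IgG Fc (750 ng/ml final). Controls were Notch1/Fc (DLL4) and Notch3/Fc (Jagged1).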

In assay [6] the target is T3, full length human DLL4 (human, UniProt Q9NR61 27-685).
T3 construct: whole, on cells; also called native DLL4 expressed in HEK293 cells
In words: FMAT competition, purified antibody vs Alexa-647 human Notch1/Fc, 293T cells with human DLL4. The essentials:
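Blocking of Notch1/Fc binding to DLL4 was scored by FMAT fluorescence on DLL4-transfected 293T cells alongside untransfected cells. Antibodies, diluted serially from 5 μg/ml, were added for 1 h at 4 °C before Alexa-647 Notch1/Fc (100 ng/ml as added) for a further 3 h at 4 °C.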

For assay [7], the target named is T3, full length human DLL4. The assay is described as follows: FMAT, hybridoma supernatant, 293T cells with human DLL4; FMAT, hybridoma supernatant, native full length human DLL4 on live 293T cells, room temperature. The procedure:
Cells diluted in PBS containing 2% FBS were seeded at a density of 3000 expressing and 15000 mock transfected cells per well in 384 well plates (Corning Costar, catalog #3712). Immediately after plating, 15 or 20 μl/well of hybridoma supernatants and 10 μl/well of secondary antibody (Goat anti-human IgG Fc Cy5, final concentration 750 ng/ml) were added and plates incubated for 3 h at room temperature prior to reading the fluorescence on the FMAT 8200 instrument (Applied Biosystems). The binding of human Notch1/Fc chimera (R&D systems, catalog #3647-TK), diluted 1:2 from 2.86 μg/ml was used as a positive control for DLL4 and human Notch3/Fc chimera diluted from 10 μg/ml was used a positive control for binding to Jagged1. Results for 12 hybridoma supernatants showing binding of hybridoma supernatants to human/cynomolgus monkey DLL4 and human Jagged are shown in Table 3.

Assay [8] addresses T3, full length human DLL4. The assay is described as follows: FMAT competition, supernatant vs Alexa-647 human Notch1/Fc, 293T cells with human DLL4; FMAT competition with Alexa-647 human Notch1/Fc, native human DLL4 on 293T cells, 4 C, n = 2. The procedure: (§2) Transfected and untransfected 239T cells were reconstituted in PBS containing 2% FCS and 5000 transfected and 17500 non-transfected cells were plated in 20 μl into wells of a 384-well tissue culture plate (Corning Costar, catalog #3712). Subsequently, 20 μl of hybridoma supernatant was added and plates were incubated at 4° C. for 1 h, at which time 20 μl of Alexa-647 labeled human Notch1/Fc was added at a final concentration of 6.7 ng/ml. After a further 3 h incubation at 4° C., the amount of bound Notch1/Fc was determined by reading the fluorescence in each well using an FMAT 8200 instrument (Applied Biosystems). Results are expressed as % inhibitions with the minimum inhibition in the assay being determined by the effects of non-DLL4 binding supernatants prepared in a similar way as described in example 2, and the maximum inhibition being defined as the signal obtained in the presence of a saturating concentration of unlabeled Notch1/Fc. N.T.=not tested

The target of assay [9] is T3, full length human DLL4. The assay is described as follows: FMAT competition, supernatant vs Alexa-647 human Notch1/Fc, 293T cells with human DLL4; FMAT competition with Alexa-647 human Notch1/Fc, native human DLL4 on 293T cells, 4 C, n = 3. The procedure:
as §2

Assay [10] has as its target T3, full length human DLL4. The assay is described as follows: FACS titration, HEK293 cells with human DLL4. The procedure: The binding affinities of the purified antibodies for DLL4 was estimated using is both FACS and BIAcore techniques. […] The cells were then washed and incubated with goat anti-human IgG-Fc-Cy5+5 μg/mL 7-Amino-Actinomycin (7AAD) for 30 minutes at 4° C.
In this equation, F=mean fluorescence, LT=total molecular mAb concentration, P′=proportionality constant that relates arbitrary fluorescence units to bound mAb, M=cellular concentration in molarity, n=number of receptors per cell, B=background signal, and KD=equilibrium dissociation constant. For each mAb titration curve an estimate for KD is obtained as P′, n, B, and KD are allowed to float freely in the nonlinear analysis. Table 20 summarizes the affinity estimates for the anti-DLL4 antibodies for human and cynomolgus monkey DLL4 derived using the methodology described above

The target in the next assay is T4, full length mouse DLL4 (mouse, UniProt Q9JI71 27-686).
T4 construct: whole, on cells
In words: FACS competition vs rat Notch1/Fc, HEK293 cells with mouse DLL4. The procedure: (§3) Further experiments were performed on selected antibodies using HEK293 cells that were stably transfected with either human, mouse or cynomolgus monkey DLL4 using retroviral constructs. In these experiments, anti-DLL4 antibodies (final concentration: 10-0.01 μg/ml) diluted in PBS containing 2% FCS were added to DLL4-expressing HEK 293 cells (50000 cells/well diluted in PBS containing 2% FCS) and incubated for 1 h at 4° C. Subsequently, Alexa-647 labeled human, rat or APC labeled mouse Notch1/Fc (e.g. R&D Systems, catalog #3647-TK-050, 1057-TK-050, 5267-TK-050, respectively) was added at a final concentration of 0.01-0.5 μg/ml and plates were incubated for a further 2 h at 4° C. prior to washing and reading on a FACSCalibur instrument.

In assay [11] the target is T3, full length human DLL4. In words: FACS competition vs human Notch1/Fc, HEK293 cells with human DLL4. The method, then: as §3
The target in assay [12] is T5, human soluble DLL4 (R&D systems catalog #1056-D4-050) (human, UniProt Q9NR61 27-524).
T5 construct: Catalog number as printed; perhaps the same product as #1506-D4; also called antigen DLL4
In words: Biacore T100, antibody immobilised, soluble human DLL4 as analyte. The procedure:
For Biacore analysis, each purified anti-DLL4 antibody was immobilized on a CM5 sensor chip within a T100 using standard amine coupling. Immobilization levels were kept below 200 RU. The concentration of DLL4 was determined by UV-VIS spectroscopy using a molar absorptivity at 280 nm of 110, 440 M⁻¹cm⁻¹, which was calculated from the sequence of the protein using a method developed by Pace et al. (G. R. Grimsley and C. N. Pace (2003) in Current Protocols in Protein Science (John Wiley & Sons, Inc.), 3.1.1-3.1.9). The antigen DLL4 (R&D systems; human catalog #1056-D4-050 or mouse, catalog #1389-D4-050) was diluted to a starting concentration of 32-64 nM and tested in a 3-fold dilution series in triplicate. The running buffer contained HBS-P with 0.1 mg/ml BSA and binding responses were collected at 23° C. Bound complexes were regenerated with a 15 s pulse of 10 mM of sodium hydroxide. The response data were globally fitted with a simple 1:1 interaction model and Table 20 summarizes the kₐ, kd and KD estimates obtained for the anti-DLL4 antibodies when binding to human soluble DLL4 was assessed.

T2 sequence (P78504 34-1218): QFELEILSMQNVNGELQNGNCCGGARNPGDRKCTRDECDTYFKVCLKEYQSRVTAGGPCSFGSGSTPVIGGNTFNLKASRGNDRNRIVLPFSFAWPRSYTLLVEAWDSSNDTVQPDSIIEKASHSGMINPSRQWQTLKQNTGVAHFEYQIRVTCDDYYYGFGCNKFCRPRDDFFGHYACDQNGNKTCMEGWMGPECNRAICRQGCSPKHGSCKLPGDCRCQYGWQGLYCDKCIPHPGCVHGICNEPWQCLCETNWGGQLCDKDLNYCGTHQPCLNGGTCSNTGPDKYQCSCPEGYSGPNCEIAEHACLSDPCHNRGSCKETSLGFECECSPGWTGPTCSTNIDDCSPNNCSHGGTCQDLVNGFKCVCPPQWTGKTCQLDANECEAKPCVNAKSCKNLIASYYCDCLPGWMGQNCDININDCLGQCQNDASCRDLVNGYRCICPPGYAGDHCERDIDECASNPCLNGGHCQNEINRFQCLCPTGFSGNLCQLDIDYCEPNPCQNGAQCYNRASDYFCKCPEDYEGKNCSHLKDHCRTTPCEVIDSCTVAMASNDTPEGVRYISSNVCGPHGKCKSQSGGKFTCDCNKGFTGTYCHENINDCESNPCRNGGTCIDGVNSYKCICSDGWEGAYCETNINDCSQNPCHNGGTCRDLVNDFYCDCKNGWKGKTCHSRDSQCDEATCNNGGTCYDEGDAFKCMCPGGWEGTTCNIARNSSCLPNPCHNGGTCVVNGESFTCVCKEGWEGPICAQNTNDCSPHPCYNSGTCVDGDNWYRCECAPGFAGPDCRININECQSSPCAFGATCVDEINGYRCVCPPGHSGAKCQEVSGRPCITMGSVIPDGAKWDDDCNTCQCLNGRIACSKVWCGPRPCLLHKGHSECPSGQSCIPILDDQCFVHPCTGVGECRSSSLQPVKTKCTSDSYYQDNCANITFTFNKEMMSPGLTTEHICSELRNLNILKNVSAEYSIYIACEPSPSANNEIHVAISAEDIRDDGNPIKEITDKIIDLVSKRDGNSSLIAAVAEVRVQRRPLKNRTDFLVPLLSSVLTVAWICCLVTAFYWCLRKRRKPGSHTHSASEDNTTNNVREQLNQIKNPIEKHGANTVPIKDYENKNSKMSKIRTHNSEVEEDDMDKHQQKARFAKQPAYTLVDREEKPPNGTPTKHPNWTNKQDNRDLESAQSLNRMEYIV
T5 sequence (Q9NR61 27-524 limits assumed): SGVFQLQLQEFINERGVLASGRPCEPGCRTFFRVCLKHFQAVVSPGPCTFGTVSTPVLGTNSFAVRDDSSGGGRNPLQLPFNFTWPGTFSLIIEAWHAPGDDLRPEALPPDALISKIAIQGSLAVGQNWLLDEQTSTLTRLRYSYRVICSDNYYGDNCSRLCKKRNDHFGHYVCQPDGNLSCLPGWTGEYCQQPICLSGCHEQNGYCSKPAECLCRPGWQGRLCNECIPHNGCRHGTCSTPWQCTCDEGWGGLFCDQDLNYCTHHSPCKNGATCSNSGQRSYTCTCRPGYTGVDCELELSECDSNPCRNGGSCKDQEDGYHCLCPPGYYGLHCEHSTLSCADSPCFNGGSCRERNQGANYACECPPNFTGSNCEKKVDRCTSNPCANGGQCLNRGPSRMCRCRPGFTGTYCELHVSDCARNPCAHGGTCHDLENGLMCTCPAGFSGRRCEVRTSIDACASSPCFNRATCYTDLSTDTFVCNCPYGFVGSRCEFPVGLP
T3 sequence (Q9NR61 27-685): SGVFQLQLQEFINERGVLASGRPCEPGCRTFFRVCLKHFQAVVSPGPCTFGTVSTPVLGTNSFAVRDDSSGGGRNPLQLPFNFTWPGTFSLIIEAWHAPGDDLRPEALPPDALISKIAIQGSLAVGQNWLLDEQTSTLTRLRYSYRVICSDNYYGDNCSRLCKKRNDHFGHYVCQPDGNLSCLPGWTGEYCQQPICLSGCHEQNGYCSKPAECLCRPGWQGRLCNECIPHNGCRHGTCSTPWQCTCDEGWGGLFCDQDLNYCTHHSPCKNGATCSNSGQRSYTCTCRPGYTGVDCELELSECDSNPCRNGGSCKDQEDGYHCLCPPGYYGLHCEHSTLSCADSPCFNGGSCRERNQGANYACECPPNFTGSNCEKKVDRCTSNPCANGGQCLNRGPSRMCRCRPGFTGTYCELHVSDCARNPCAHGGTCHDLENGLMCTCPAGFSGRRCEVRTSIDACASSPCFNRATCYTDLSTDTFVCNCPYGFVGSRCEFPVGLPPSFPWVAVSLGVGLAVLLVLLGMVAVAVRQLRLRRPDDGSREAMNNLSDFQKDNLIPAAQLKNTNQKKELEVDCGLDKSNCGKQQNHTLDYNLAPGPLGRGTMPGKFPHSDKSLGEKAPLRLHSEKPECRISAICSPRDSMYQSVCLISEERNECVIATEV
T4 sequence (Q9JI71 27-686): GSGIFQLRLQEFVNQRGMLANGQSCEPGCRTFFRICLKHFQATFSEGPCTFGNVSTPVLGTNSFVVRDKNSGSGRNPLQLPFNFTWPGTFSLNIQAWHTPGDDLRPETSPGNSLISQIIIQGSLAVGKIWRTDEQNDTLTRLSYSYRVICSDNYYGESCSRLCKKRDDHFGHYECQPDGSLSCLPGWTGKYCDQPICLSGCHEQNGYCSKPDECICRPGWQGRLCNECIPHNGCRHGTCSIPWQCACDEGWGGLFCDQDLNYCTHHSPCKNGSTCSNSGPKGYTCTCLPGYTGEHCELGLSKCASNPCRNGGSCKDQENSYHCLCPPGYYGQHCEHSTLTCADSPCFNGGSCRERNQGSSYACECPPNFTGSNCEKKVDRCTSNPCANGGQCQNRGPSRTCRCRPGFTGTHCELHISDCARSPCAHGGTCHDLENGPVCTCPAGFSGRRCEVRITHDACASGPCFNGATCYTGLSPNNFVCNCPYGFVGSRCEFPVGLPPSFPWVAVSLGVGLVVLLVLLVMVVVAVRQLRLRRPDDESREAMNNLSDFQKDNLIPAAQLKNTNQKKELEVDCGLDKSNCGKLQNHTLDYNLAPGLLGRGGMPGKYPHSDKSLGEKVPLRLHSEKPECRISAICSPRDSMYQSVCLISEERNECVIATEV

B1: 20G8 (antibody, IgG4, V domains shown)
VH: QVQLVQSGAEVKKPGASVKVSCKASGYTFTSYGISWVRQAPGQGLEWMGWISVYNGNTNYAQKLQGRVTMTTDTSTSTAYMEVRSLRSDDTAVYYCARDRVPRIPRTTEAFDIWGRGTMVTVCS
VL: QSVLTQPPSASGTPGQRVTISCSGSSSNIGSYYVYWYQQLPGTAPKLLIYRDNQRPSGVPDRFSGSKSGTSASLAIRGLRSDDEADYYCAAWDDSLSGHWVFGGGTKLTVL
notes: Fully human; also used where no isotype is printed
As for B1, the “Dll1/293T X Geo mean” value with human Dll1 [1] is 40. In the assay with human Jagged1 [2], the “Jagged1/293T X Geo mean” value is 16. Moreover, in the assay with human Dll1 [3], the Dll1/mock ratio turned out to be 1.34. Further, the Jagged1/mock ratio with human Jagged1 [4] is 1.12. Moreover, in the assay with human Jagged1 [5], the Count turned out to be 3, the FL1 is 1500 and the FL1 x count was 4490. Further, in the assay with full length human DLL4 [6], the “% inhibition at 0.020 nM” value was -5%, the “% inhibition at 0.070 nM” value is 3%, the “% inhibition at 0.21 nM” value is -4% and the “% inhibition at 0.62 nM” value was -14%. Moreover, in the assay with full length human DLL4 [6], the “% inhibition at 1.9 nM” value was determined as 29%, the “% inhibition at 5.6 nM” value was 114%, the “% inhibition at 16.7 nM” value was determined as 115% and the IC50 was found to be 2.02 nM. Further, in the assay with full length human DLL4 [7], the Count worked out at 182, the FL1 is 10500 and the FL1 x count was found to be 1.9e+06. Besides, the “% inhibition n = 2” value with full length human DLL4 [8] is 88%. The “% inhibition n = 3” value with full length human DLL4 [9] amounted to 143%.

B2: 21H3RK IgG2 (antibody, V domains shown)
VH: QVQLVQSGAEVKKPGASVKVSCKASGYTFTNYGITWVRQAPGQGPEWMGWISAYNGNTNYAQKLQDRVTVTTDTSTSTAYMELRSLRSDDTAVYYCARDRVPRIPVTTEAFDIWGQGTMVTVSS
VL: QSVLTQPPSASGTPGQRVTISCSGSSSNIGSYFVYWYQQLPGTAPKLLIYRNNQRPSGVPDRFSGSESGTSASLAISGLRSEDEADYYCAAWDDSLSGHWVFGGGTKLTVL
notes: IgG2
Take B2: the dissociation constant (Kd) with full length human DLL4 [10] turned out to be 0.225 nM. The molecule further came in with an IC50 with full length mouse DLL4 of 15.6 nM. Also, the IC50 with full length human DLL4 [11] stood at 0.75 nM. Further, in assay [12], the Kd was 0.721 nM, the koff was determined as 0.00016 s⁻¹ and the kon came to 222000 M⁻¹ s⁻¹.

B3: 21H3 IgG2 (antibody, V domains shown)
VH: QVQLVQSGAEVKKPGASVKVSCKASGYTFTNYGITWVRQAPGQGPEWMGWISAYNGNTNYAQKLQDRVTVTTDTSTSTAYMELRSLRSDDTAVYYCARDRVPRIPVTTEAFDIWGQGTMVTVSS
VL: QSVLTQPPSASGTPGQRVTISCSGSSSNIGSYFVYWYQQLPGTAPKLLIYRNNQRPSGVPDRFSGSESGTSASLAISGLRSEDEADYYCAAWDDSLSGHWVFGGGTRLTVL
notes: Formatted as IgG2
In the case of B3, in the assay with full length human DLL4 [10], binding was characterised by a dissociation constant (Kd) of 0.32 nM. The molecule further came in with an IC50 with full length mouse DLL4 of 13.5 nM. The molecule also yielded a concentration for half-maximal inhibition (IC50) with full length human DLL4 [11] of 0.73 nM. In [12], this molecule gave a dissociation constant (Kd) of 0.598 nM, a koff of 0.000155 s⁻¹ and a kon of 259000 M⁻¹ s⁻¹.
